In the supplement of paper PMC10065799, “High-throughput profiling of sequence recognition by tyrosine kinases and SH2 domains using bacterial peptide display” (eLife, 2023):

Assays:
[1] = target: c-Src SH2; test: SH2 binding enrichment of the phosphorylated peptide, bacterial display (enrichment ratio); higher = better substrate or ligand; peptides without Tyr show the background
[2] = target: SHP2-C SH2; test: as above
[3] = target: Grb2 SH2 (UniProt P62993); test: as above
[4] = target: EPHB2 (UniProt P29323); test: phosphorylation enrichment, bacterial display (enrichment ratio); higher = better substrate or ligand; peptides without Tyr show the background
[5] = system: AncSZ; test: as above
[6] = target: EPHB1 (UniProt P54762); test: as above
[7] = system: c-Abl (mouse); test: as above
[8] = target: FGFR1 (UniProt P11362); test: as above
[9] = target: MERTK (UniProt Q12866); test: as above
[10] = system: Fer (mouse); test: as above
[11] = target: Fyn (UniProt P06241); test: as above
[12] = target: Jak2 (UniProt O60674); test: as above
[13] = system: c-Src; test: as above
[14] = target: Fes (UniProt P07332); test: as above
[15] = target: FGFR3 (UniProt P22607); test: as above
[16] = target: Hck (UniProt P08631); test: as above
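Throughout, for SH2 binding enrichment of the phosphorylated peptide, bacterial display: peptide library displayed on the E. coli surface as eCPX fusions, selected cells deep-sequenced, score is each peptide's frequency after selection divided by its frequency in the input.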
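Throughout, for phosphorylation enrichment, bacterial display: 11-residue human phosphosite peptides and single-mutation variants displayed on the E. coli surface, counted by deep sequencing, each peptide's frequency after selection divided by its frequency in the unselected input library; frequency after pTyr selection over input frequency; kinase dosed for 20-30% of maximal phosphorylation in three min.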

Sequence of Grb2 SH2 (P62993 whole entry, looked up): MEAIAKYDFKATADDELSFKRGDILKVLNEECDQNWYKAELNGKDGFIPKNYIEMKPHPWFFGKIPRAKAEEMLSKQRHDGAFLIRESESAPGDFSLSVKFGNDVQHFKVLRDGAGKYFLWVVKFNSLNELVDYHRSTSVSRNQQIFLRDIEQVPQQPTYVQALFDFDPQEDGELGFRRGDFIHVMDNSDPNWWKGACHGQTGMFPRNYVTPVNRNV
Sequence of MERTK (Q12866 whole entry, looked up): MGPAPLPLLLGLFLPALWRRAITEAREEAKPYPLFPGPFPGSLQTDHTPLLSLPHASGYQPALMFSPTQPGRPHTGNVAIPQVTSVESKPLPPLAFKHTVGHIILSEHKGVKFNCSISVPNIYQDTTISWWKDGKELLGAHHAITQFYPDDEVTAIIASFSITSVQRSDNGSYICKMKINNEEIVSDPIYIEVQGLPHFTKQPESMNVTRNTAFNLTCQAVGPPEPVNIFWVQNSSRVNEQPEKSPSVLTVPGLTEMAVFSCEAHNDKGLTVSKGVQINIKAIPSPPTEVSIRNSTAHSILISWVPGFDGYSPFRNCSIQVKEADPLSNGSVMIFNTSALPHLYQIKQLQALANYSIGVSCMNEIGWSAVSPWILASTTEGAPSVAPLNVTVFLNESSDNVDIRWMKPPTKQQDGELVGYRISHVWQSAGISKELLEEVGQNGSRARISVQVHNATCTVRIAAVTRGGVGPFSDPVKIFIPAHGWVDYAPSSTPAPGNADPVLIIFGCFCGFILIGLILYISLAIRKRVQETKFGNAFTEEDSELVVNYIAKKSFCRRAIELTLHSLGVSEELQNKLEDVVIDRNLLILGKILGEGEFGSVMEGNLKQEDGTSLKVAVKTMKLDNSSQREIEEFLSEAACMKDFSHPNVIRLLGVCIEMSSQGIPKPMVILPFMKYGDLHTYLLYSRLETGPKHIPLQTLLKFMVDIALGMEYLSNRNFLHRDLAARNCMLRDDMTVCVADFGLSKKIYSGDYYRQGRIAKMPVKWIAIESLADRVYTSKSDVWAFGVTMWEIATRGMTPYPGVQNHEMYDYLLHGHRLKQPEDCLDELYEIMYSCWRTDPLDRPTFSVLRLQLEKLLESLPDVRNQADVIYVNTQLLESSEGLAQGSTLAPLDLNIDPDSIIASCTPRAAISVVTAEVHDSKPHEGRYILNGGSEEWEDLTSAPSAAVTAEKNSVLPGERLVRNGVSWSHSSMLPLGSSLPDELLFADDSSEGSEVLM
Sequence of FGFR3 (P22607 whole entry, looked up): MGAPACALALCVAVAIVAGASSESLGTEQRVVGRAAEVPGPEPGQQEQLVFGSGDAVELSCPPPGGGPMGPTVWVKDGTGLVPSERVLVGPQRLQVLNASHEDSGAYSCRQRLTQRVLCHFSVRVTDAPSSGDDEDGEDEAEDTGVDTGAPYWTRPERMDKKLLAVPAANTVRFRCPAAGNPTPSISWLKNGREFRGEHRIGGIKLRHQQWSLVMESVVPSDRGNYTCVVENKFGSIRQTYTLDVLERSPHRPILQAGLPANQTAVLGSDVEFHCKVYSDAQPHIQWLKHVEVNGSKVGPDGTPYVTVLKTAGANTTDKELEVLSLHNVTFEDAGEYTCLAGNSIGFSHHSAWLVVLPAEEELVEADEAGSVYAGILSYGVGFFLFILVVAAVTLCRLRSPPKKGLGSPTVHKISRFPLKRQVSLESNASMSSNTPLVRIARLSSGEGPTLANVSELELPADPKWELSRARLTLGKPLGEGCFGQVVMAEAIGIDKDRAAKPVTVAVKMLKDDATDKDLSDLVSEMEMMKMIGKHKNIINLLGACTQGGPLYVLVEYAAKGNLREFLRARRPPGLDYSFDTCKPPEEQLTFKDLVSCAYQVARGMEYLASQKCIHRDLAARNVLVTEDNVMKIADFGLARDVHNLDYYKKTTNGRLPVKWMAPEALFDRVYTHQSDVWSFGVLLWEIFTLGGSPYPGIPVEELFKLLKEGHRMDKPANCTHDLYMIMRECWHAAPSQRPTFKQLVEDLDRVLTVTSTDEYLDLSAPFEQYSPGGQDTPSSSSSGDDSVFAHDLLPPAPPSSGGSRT
Sequence of Hck (P08631 whole entry, looked up, the tested form may be a part): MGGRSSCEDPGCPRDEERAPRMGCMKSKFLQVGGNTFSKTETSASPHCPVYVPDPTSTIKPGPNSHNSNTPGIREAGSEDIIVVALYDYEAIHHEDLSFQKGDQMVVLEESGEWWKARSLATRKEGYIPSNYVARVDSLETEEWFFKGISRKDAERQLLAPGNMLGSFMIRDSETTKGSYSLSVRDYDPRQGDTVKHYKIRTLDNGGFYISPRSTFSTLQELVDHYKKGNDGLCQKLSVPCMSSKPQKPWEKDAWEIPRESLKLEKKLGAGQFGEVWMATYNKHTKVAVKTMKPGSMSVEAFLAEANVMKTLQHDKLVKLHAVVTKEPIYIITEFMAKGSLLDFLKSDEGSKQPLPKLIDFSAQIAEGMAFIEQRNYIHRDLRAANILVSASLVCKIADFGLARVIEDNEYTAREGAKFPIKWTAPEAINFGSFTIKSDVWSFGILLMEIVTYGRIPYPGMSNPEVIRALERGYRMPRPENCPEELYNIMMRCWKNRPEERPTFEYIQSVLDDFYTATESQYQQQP
Sequence of Fyn (P06241 whole entry, looked up): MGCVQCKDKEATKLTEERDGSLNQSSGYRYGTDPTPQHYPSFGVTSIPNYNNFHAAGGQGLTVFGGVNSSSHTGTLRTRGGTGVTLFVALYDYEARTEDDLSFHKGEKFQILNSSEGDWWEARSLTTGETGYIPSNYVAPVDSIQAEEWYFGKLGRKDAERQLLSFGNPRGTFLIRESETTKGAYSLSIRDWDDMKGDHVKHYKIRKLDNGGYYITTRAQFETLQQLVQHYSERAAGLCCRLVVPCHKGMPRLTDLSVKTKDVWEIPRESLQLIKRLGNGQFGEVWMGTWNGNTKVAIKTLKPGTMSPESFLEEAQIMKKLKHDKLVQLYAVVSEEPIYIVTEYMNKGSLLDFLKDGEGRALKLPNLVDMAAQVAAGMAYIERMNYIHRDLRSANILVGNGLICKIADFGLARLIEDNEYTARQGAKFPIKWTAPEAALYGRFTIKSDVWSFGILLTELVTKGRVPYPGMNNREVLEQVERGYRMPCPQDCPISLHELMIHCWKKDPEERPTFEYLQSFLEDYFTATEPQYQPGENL
Sequence of EPHB2 (P29323 whole entry, looked up): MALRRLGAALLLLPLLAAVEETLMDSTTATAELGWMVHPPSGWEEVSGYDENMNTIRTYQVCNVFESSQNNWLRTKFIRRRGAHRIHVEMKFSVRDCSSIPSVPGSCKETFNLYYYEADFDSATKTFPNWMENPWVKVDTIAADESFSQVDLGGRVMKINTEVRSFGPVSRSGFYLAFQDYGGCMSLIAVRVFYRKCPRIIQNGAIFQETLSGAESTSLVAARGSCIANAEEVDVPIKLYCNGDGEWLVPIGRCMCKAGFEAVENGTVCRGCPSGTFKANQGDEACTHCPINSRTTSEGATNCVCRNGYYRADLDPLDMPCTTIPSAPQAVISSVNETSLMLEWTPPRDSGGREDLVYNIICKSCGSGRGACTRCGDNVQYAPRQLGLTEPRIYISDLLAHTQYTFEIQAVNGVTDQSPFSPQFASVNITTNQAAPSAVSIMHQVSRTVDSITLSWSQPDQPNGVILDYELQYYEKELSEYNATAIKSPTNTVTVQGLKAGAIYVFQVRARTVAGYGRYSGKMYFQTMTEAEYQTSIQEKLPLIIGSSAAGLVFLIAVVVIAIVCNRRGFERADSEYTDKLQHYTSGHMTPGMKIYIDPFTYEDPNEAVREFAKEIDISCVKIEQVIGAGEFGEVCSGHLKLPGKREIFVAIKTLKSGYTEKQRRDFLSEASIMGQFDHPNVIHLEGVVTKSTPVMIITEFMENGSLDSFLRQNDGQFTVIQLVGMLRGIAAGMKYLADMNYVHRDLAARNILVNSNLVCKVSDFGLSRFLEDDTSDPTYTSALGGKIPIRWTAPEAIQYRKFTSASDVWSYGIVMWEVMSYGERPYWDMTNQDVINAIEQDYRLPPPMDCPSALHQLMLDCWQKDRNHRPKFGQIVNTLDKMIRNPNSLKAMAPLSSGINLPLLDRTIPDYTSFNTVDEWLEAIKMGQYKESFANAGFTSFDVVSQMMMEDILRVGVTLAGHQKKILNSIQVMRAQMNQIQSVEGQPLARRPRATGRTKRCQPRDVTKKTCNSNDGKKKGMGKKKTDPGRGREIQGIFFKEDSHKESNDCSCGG
Sequence of FGFR1 (P11362 whole entry, looked up): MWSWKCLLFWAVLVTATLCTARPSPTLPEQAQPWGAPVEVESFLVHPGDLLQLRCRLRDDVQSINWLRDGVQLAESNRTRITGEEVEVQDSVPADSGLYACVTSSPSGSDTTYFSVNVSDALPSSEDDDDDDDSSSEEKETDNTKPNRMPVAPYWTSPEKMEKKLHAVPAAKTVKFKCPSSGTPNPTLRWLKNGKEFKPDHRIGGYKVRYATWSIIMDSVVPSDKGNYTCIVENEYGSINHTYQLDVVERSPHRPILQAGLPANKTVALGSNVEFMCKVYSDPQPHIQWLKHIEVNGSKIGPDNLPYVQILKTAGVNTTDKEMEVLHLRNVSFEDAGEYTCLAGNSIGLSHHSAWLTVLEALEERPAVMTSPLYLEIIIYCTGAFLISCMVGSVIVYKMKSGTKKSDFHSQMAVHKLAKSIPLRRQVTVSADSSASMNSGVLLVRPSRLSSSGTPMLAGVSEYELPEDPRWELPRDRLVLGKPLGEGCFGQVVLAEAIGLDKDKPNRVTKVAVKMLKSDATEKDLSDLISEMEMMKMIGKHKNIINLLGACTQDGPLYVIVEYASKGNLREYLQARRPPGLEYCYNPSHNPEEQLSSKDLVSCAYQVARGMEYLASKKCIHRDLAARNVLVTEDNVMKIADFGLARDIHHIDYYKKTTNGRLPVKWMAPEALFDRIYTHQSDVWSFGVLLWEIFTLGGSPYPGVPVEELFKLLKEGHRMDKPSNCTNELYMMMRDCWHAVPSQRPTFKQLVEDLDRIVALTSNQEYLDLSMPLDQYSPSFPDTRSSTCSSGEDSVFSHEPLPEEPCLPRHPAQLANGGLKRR

With LEDEVCAQKMK [TPM2_Y261_Y261C] the SH2 binding enrichment [1] was 0.967, the SH2 binding enrichment [2] was 1.38 and the SH2 binding enrichment [3] was 1.02. For the same sequence, the phosphorylation enrichment [4] was 0.963, the phosphorylation enrichment [5] was 1.6 and the phosphorylation enrichment [6] was 1.07. For the same sequence, the phosphorylation enrichment [7] was 1.2, the phosphorylation enrichment [8] was 0.79 and the phosphorylation enrichment [9] was 0.848. The phosphorylation enrichment [10] was 1.01, the phosphorylation enrichment [11] was 1.01 and the phosphorylation enrichment [12] was 1.44. For the same sequence, the phosphorylation enrichment [13] was 0.573, the phosphorylation enrichment [14] was 2.03 and the phosphorylation enrichment [15] was 1.16. The phosphorylation enrichment [16] was 0.832.

LEDPMYDIIRD [RP9_Y142_H137L] was tested, and the SH2 binding enrichment [1] was 1.67, the SH2 binding enrichment [2] was 0.475 and the SH2 binding enrichment [3] was 0.863. The phosphorylation enrichment [4] was 6.72, the phosphorylation enrichment [5] was 3.53 and the phosphorylation enrichment [6] was 4.98. For the same sequence, the phosphorylation enrichment [7] was 4.38, the phosphorylation enrichment [8] was 1.14 and the phosphorylation enrichment [9] was 7.83. It also gave a phosphorylation enrichment [10] of 6.19, a phosphorylation enrichment [11] of 7.34 and a phosphorylation enrichment [12] of 2.7. It also gave a phosphorylation enrichment [13] of 7.86, a phosphorylation enrichment [14] of 2.32 and a phosphorylation enrichment [15] of 1.29. It also gave a phosphorylation enrichment [16] of 7.93.

Work on LEEFQYIGESQ [MSH2_Y856] yielded an SH2 binding enrichment [1] of 0.535, an SH2 binding enrichment [2] of 0.688 and an SH2 binding enrichment [3] of 0.842. The phosphorylation enrichment [4] was 1.19, the phosphorylation enrichment [5] was 2.09 and the phosphorylation enrichment [6] was 1.03. The phosphorylation enrichment [7] was 1.25, the phosphorylation enrichment [8] was 0.733 and the phosphorylation enrichment [9] was 0.61. The phosphorylation enrichment [10] was 0.918, the phosphorylation enrichment [11] was 0.722 and the phosphorylation enrichment [12] was 2.43. It also gave a phosphorylation enrichment [13] of 0.882, a phosphorylation enrichment [14] of 1.62 and a phosphorylation enrichment [15] of 1.11. It also gave a phosphorylation enrichment [16] of 0.558.

With LEKRAYICAHP [ACAD9_Y611] the SH2 binding enrichment [1] was 0.442, the SH2 binding enrichment [2] was 0.889 and the SH2 binding enrichment [3] was 0.8. The phosphorylation enrichment [4] was 0.455, the phosphorylation enrichment [5] was 0.943 and the phosphorylation enrichment [6] was 0.535. It also gave a phosphorylation enrichment [7] of 0.638, a phosphorylation enrichment [8] of 0.506 and a phosphorylation enrichment [9] of 0.479. It also gave a phosphorylation enrichment [10] of 0.456, a phosphorylation enrichment [11] of 0.457 and a phosphorylation enrichment [12] of 0.818. For the same sequence, the phosphorylation enrichment [13] was 0.462, the phosphorylation enrichment [14] was 0.969 and the phosphorylation enrichment [15] was 0.616. For the same sequence, the phosphorylation enrichment [16] was 0.476.

In the case of LFCLHYFHRTF [SRD5A2_Y91_V89L], the SH2 binding enrichment [1] was 1.33, the SH2 binding enrichment [2] was 1.62 and the SH2 binding enrichment [3] was 1.48. It also gave a phosphorylation enrichment [4] of 0.541, a phosphorylation enrichment [5] of 1.85 and a phosphorylation enrichment [6] of 0.9. It also gave a phosphorylation enrichment [7] of 1.21, a phosphorylation enrichment [8] of 0.71 and a phosphorylation enrichment [9] of 0.66. For the same sequence, the phosphorylation enrichment [10] was 0.888, the phosphorylation enrichment [11] was 1.07 and the phosphorylation enrichment [12] was 1.78. For the same sequence, the phosphorylation enrichment [13] was 0.879, the phosphorylation enrichment [14] was 1.93 and the phosphorylation enrichment [15] was 1.46. It also gave a phosphorylation enrichment [16] of 0.494.

For LFCVHYFHRTF [SRD5A2_Y91], the SH2 binding enrichment [1] was 0.918, the SH2 binding enrichment [2] was 1.08 and the SH2 binding enrichment [3] was 1.3. For the same sequence, the phosphorylation enrichment [4] was 1.24, the phosphorylation enrichment [5] was 2.32 and the phosphorylation enrichment [6] was 1.26. For the same sequence, the phosphorylation enrichment [7] was 2.35, the phosphorylation enrichment [8] was 1.04 and the phosphorylation enrichment [9] was 0.989. For the same sequence, the phosphorylation enrichment [10] was 1.47, the phosphorylation enrichment [11] was 1.04 and the phosphorylation enrichment [12] was 2.73. For the same sequence, the phosphorylation enrichment [13] was 1.14, the phosphorylation enrichment [14] was 2.73 and the phosphorylation enrichment [15] was 1.97. For the same sequence, the phosphorylation enrichment [16] was 1.16.

With LFIDSYEKDVA [PGM1_Y521_YF] the SH2 binding enrichment [1] was 0.787, the SH2 binding enrichment [2] was 0.728 and the SH2 binding enrichment [3] was 0.835. It also gave a phosphorylation enrichment [4] of 0.755, a phosphorylation enrichment [5] of 2.09 and a phosphorylation enrichment [6] of 1.34. It also gave a phosphorylation enrichment [7] of 1.36, a phosphorylation enrichment [8] of 0.855 and a phosphorylation enrichment [9] of 0.848. For the same sequence, the phosphorylation enrichment [10] was 0.767, the phosphorylation enrichment [11] was 1.41 and the phosphorylation enrichment [12] was 1.22. The phosphorylation enrichment [13] was 0.694, the phosphorylation enrichment [14] was 2.05 and the phosphorylation enrichment [15] was 1.48. The phosphorylation enrichment [16] was 0.816.

Work on LFMGDYVGRGF [PPP2CA_Y86_D88G_YF] yielded an SH2 binding enrichment [1] of 0.487, an SH2 binding enrichment [2] of 0.817 and an SH2 binding enrichment [3] of 1.01. It also gave a phosphorylation enrichment [4] of 1.48, a phosphorylation enrichment [5] of 1.38 and a phosphorylation enrichment [6] of 2.4. The phosphorylation enrichment [7] was 1.1, the phosphorylation enrichment [8] was 0.919 and the phosphorylation enrichment [9] was 0.456. For the same sequence, the phosphorylation enrichment [10] was 0.412, the phosphorylation enrichment [11] was 1.5 and the phosphorylation enrichment [12] was 3.61. For the same sequence, the phosphorylation enrichment [13] was 2.31, the phosphorylation enrichment [14] was 1.04 and the phosphorylation enrichment [15] was 0.739. It also gave a phosphorylation enrichment [16] of 1.53.

LGGAMYFLEAE [PKHD1_Y452_YF] gave an SH2 binding enrichment [1] of 0.802, an SH2 binding enrichment [2] of 0.75 and an SH2 binding enrichment [3] of 0.868. The phosphorylation enrichment [4] was 0.984, the phosphorylation enrichment [5] was 1.53 and the phosphorylation enrichment [6] was 0.999. The phosphorylation enrichment [7] was 0.784, the phosphorylation enrichment [8] was 0.62 and the phosphorylation enrichment [9] was 0.709. The phosphorylation enrichment [10] was 0.623, the phosphorylation enrichment [11] was 1.13 and the phosphorylation enrichment [12] was 1.34. It also gave a phosphorylation enrichment [13] of 1.01, a phosphorylation enrichment [14] of 1.8 and a phosphorylation enrichment [15] of 1.51. The phosphorylation enrichment [16] was 1.07.

In the case of LGGSPYPRVPV [FGFR1_Y701_G703R], the SH2 binding enrichment [1] was 0.469, the SH2 binding enrichment [2] was 0.836 and the SH2 binding enrichment [3] was 0.784. The phosphorylation enrichment [4] was 0.426, the phosphorylation enrichment [5] was 0.435 and the phosphorylation enrichment [6] was 0.356. For the same sequence, the phosphorylation enrichment [7] was 0.483, the phosphorylation enrichment [8] was 0.47 and the phosphorylation enrichment [9] was 0.4. For the same sequence, the phosphorylation enrichment [10] was 0.444, the phosphorylation enrichment [11] was 0.429 and the phosphorylation enrichment [12] was 0.507. For the same sequence, the phosphorylation enrichment [13] was 0.426, the phosphorylation enrichment [14] was 0.55 and the phosphorylation enrichment [15] was 0.471. It also gave a phosphorylation enrichment [16] of 0.412.

LGPDGYSTVDR [ARVCF_Y901] was tested, and the SH2 binding enrichment [1] was 29.2, the SH2 binding enrichment [2] was 1.18 and the SH2 binding enrichment [3] was 0.927. The phosphorylation enrichment [4] was 0.594, the phosphorylation enrichment [5] was 2.11 and the phosphorylation enrichment [6] was 0.318. For the same sequence, the phosphorylation enrichment [7] was 0.909, the phosphorylation enrichment [8] was 0.617 and the phosphorylation enrichment [9] was 0.553. For the same sequence, the phosphorylation enrichment [10] was 0.709, the phosphorylation enrichment [11] was 0.679 and the phosphorylation enrichment [12] was 1.01. It also gave a phosphorylation enrichment [13] of 0.395, a phosphorylation enrichment [14] of 1.31 and a phosphorylation enrichment [15] of 0.81. The phosphorylation enrichment [16] was 0.405.

LGPSDYFGEIV [PRKAR1A_Y323_A328V] gave an SH2 binding enrichment [1] of 0.654, an SH2 binding enrichment [2] of 0.738 and an SH2 binding enrichment [3] of 1.03. It also gave a phosphorylation enrichment [4] of 0.722, a phosphorylation enrichment [5] of 1.41 and a phosphorylation enrichment [6] of 0.717. For the same sequence, the phosphorylation enrichment [7] was 0.746, the phosphorylation enrichment [8] was 1.49 and the phosphorylation enrichment [9] was 0.529. The phosphorylation enrichment [10] was 0.586, the phosphorylation enrichment [11] was 0.655 and the phosphorylation enrichment [12] was 1.06. The phosphorylation enrichment [13] was 0.781, the phosphorylation enrichment [14] was 0.913 and the phosphorylation enrichment [15] was 1.42. It also gave a phosphorylation enrichment [16] of 0.577.

Sequence LGSWTYTKTVS [ROS1_Y144] has an SH2 binding enrichment [1] of 0.415, an SH2 binding enrichment [2] of 0.64 and an SH2 binding enrichment [3] of 0.817. It also gave a phosphorylation enrichment [4] of 1.04, a phosphorylation enrichment [5] of 1.94 and a phosphorylation enrichment [6] of 2.19. It also gave a phosphorylation enrichment [7] of 0.965, a phosphorylation enrichment [8] of 1.19 and a phosphorylation enrichment [9] of 0.519. The phosphorylation enrichment [10] was 0.8, the phosphorylation enrichment [11] was 0.86 and the phosphorylation enrichment [12] was 1.61. For the same sequence, the phosphorylation enrichment [13] was 0.774, the phosphorylation enrichment [14] was 2.38 and the phosphorylation enrichment [15] was 1.44. It also gave a phosphorylation enrichment [16] of 1.05.

Work on LIHTKYPQLLP [AHCY_Y143] yielded an SH2 binding enrichment [1] of 0.42, an SH2 binding enrichment [2] of 0.725 and an SH2 binding enrichment [3] of 0.54. The phosphorylation enrichment [4] was 0.562, the phosphorylation enrichment [5] was 0.808 and the phosphorylation enrichment [6] was 0.642. It also gave a phosphorylation enrichment [7] of 0.575, a phosphorylation enrichment [8] of 0.639 and a phosphorylation enrichment [9] of 0.6. For the same sequence, the phosphorylation enrichment [10] was 0.395, the phosphorylation enrichment [11] was 0.449 and the phosphorylation enrichment [12] was 0.679. For the same sequence, the phosphorylation enrichment [13] was 0.379, the phosphorylation enrichment [14] was 0.81 and the phosphorylation enrichment [15] was 0.573. For the same sequence, the phosphorylation enrichment [16] was 0.428.
